Changes are numbered by the printed parent chain.
T1: Affinity-purified human CD46 from LS174T cells (human, UniProt P15529 35-392, limits assumed)
T1 construct: Coupled (640 RU) to CM5 chips for the BIACORE work; also called purified CD46; membrane cofactor protein CD46
T1 sequence (looked up): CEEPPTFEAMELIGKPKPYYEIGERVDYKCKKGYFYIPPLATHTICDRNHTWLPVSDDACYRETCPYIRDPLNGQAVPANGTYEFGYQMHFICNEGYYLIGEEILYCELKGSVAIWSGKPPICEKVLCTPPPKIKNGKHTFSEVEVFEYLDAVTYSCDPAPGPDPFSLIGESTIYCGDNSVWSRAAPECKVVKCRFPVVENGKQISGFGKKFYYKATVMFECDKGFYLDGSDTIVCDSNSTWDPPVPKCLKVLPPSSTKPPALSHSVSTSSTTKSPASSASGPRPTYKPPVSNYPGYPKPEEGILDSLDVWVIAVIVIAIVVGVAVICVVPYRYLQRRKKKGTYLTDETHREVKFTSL

T2: EpCAM on CHO (dhfr-) cells transfected with EpCAM cDNA (UniProt P16422 24-314, limits assumed)
T2 construct: whole, on cells; also called EP-CAM homotypic adhesion molecule; EpCAM-transfected cells
T2 sequence (looked up): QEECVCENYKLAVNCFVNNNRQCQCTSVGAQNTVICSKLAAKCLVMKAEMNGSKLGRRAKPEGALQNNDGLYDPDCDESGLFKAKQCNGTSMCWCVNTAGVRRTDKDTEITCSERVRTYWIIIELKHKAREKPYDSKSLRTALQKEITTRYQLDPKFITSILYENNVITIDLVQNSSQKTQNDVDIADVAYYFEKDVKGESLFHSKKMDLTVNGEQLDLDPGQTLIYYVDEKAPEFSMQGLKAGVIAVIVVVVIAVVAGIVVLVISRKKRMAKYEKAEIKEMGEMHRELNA

T3: CD46 on cells (human colon carcinoma LS174T cells; CHO (dhfr-) cells transfected with CD46 cDNA) (human, UniProt P15529 35-392)
T3 construct: whole, on cells; also called CD46 transfectants; cofactor protein CD46
T3 sequence (looked up): T1 sequence (looked up)

B1: 02-237 IgG (antibody, V domains shown)
VH: QVQLVQSGAEVKKPGASVKVSCKASGYTFTSYGISWVRQAPGQGLEWMGWISAYNGNTNYAQKLQGRVTMTTDTSTSTAYMELRSLRSDDTAVYYCARGFPRTSFDSWGQGTLVTVSS
VL: not shown
modifications: amino acid residue 1 is a pyroglutamic acid (remark to Table III)
notes: Tested as human IgG1 (constant domains from pCRU-K01); The N-terminus of its light chain differs slightly from that of UBS54/K53 because of the cloning strategy
B2: K53 IgG (antibody, V domains shown)
VH: B1 VH with F100M, P101M, T103G, S104V, S107Y, S118T
VL: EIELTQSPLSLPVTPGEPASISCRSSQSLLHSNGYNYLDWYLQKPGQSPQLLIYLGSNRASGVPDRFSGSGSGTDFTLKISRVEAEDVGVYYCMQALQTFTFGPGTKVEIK
modifications: amino acid residue 1 is a pyroglutamic acid (remark to Table III)
notes: also called clone K53; anti-CD46 clone K53
B3: UBS54 IgG (antibody, V domains shown)
VH: QVQLVQSGAEVKKPGSSVRVSCKASGGTFSSYAISWVRQAPGQGLEWMGGIIPIFGTANYAQKFQGRVTITADESTSTAYMELSSLRSEDTAVYYCARDPFLHYWGQGTLVTVST
VL: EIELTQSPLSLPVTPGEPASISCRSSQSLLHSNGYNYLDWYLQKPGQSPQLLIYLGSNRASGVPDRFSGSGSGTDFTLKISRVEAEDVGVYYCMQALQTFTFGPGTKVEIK
modifications: amino acid residue 1 is a pyroglutamic acid (remark to Table III)
notes: Tested as full human IgG1 with kappa light chain; also called anti-EpCAM clone UBS54; encoded by pUBS3000Neo

Tests used:
[1] = molecular target: T1, Affinity-purified human CD46 from …; test: SPR (BIACORE 3000, 37° C.), purified CD46 coupled to CM5 chip, IgG in solution
[2] = molecular target: T4, CD38 on CHO (dhfr-) cells transfected with CD38 cDNA (UniProt P28907 1-300, limits assumed); test: FACS on CHO cells transfected with EpCAM, CD46 or CD38
T4 construct: whole, on cells; also called control antigen CD38; negative control (CD38)

[3] = molecular target: T2, EpCAM on CHO (dhfr-) cells transfected …; test: as above
[4] = molecular target: T3, CD46 on cells (human colon carcinoma …); test: as above

Binder | Kd [1] [µM] | binding result [2] | binding result [3] | binding result [4]
B1 | 0.022 | no binding (tested: 20 µg IgG1/ml) | no binding (tested: 20 µg IgG1/ml) | 
B2 | 0.91 | no binding (tested: 20 µg IgG1/ml) | no binding (tested: 20 µg IgG1/ml) | 
B3 |  | no binding (tested: 20 µg IgG1/ml) |  | no binding (tested: 20 µg IgG1/ml)
